The target in this data set is maize CDK (cyclin-dependent protein kinase) from immature ear extract.

B1: GST-ZMWEE1 (glutathione S-transferase ZMWEE1 fusion protein, from pGEX2Tzmwee1, made in E. coli) (protein)
chain: CTPDYITPEMPQVANEFDDDDKENIPCPKSPEKSANPRSKRYRTDCSPKAREVTDFSFDHQITPVLFDSLTRDDSEEEQPKQPALEKRGGYVSQSAVALRCRVMPPPCVKNPYLNTDPCIDAAVYGGRQCNSAVFSPSIGGNGLSRYRTDFHEIEKIGYGNFSVVFKVLNRIDGCLYAVKRSIKQLHNDMERRQAVKEVQAMAALGSHENIVRYFTSWFENEQLYIQMELCDRCLSMNRNQPVKRGEALELLYQICKGLDFMHERGIAHLDVKPDNIYVRNGIYKLGDFGCATLVNRSLAIEDGDSRYMPPEMLNDKYEHLDKVDIFSLGAAVYELIRGTPLPESGSHFTSIREGKIALLPGCPMQFQSLIKSMMDPDPVRRPSAKEILRHPSFDKLHKASSK
With B1, the “CDK activity (histone H1 kinase activity) of CDK adsorbed by p13^suc1” value is “GST-ZMWEE1, with or without pre-incubation, inhibited CDK activity” and the “histone H1-kinase activity in crude immature ear extract” value is reported as “GST-ZMWEE1 inhibits the histone H1-kinase activity in the extract”.

These data come from patent publication US20030041342.
